# Results reported in article PMC10531517, “Rational Design of Novel Peptidomimetics against Influenza A Virus: Biological and Computational Studies” (International Journal of Molecular Sciences, 2023).
# *1 amine or outer side, *2 acyl side, *3 side chain or, on linkers, in order; H or OH if unused. Where a SMILES comes first, the peptide text is derived from it. [ ]: non-standard residue; d: D form. N(2-mercaptoethyl)Gly = O=C(CN(CCS[*:3])[*:1])[*:2]; NMeS = CN[C@@H](CO)C(=O)O
# Tests used:
# [1] = target: T1, HA (H1N1 hemagglutinin, Cat No.: Z03181, GenScript) (Influenza A virus, UniProt C3W5S1); test: biochemical; type: binding
# T1 construct: Full-length recombinant HA (His-Tag) was immobilized; purchased GenScript Z03181-100
# [2] = target: Full-length recombinant HA (His-Tag), H1N1 hemagglutinin, GenScript Cat No. Z03181 (influenza A virus H1N1); test: SPR
# [3] = target: Full-length recombinant HA (His-Tag), H1N1 hemagglutinin, GenScript Cat No. Z03181 (influenza A virus H1N1); test: MST; labelled His-HA (NT647-HA) held constant, compound in 16 1:1 serial dilutions from 50 µM, PBS, 10 min at rt, standard-treated capillaries, Monolith NT.115pico, 10% LED power, high MST power, triplicate
# A/Parma/24/09 H1N1 virus [4] = tested on: A/Parma/24/09 H1N1 virus; parameters: method as in Scala et al. (2017) [23]; settings: read-out: IC50 (peptide concentration that inhibits virus-induced hemagglutination by 50%), reference peptides, ref Scala et al. (2017) [23]; cited from earlier work
# A/Parma/24/09 H1N1 virus [5] = tested on: A/Parma/24/09 H1N1 virus; parameters: method as in Scala et al. (2017) [23]; settings: read-out: EC50 (concentration that reduced cytopathic effect by 50%); reference peptides; ref Scala et al. (2017) [23]; cited from earlier work
# T1 sequence (C3W5S1 entry or part of it, added parts left off): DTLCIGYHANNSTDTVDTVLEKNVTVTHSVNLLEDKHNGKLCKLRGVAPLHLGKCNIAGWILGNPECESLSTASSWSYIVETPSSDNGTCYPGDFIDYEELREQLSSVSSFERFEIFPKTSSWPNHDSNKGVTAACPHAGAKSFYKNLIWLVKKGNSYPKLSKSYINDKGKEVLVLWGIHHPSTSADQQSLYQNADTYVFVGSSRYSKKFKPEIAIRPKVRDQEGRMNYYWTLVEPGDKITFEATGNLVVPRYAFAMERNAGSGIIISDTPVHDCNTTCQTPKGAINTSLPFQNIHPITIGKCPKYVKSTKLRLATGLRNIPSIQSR
Compound,Kd [2],Kd [3],also measured
"CC(=O)N[C@@H](CO)C(=O)N[C@@H](CCCCN)C(=O)N[C@@H](Cc1c[nH]cn1)C(=O)N(C)[C@@H](CO)C(N)=O [Peptide 10, SKH(N-Me)S] (Ac-SKH[NMeS]-NH2)",,,Kd [1]: 3040 ± 850 nM
"CC(=O)N[C@@H](CO)C(=O)N[C@@H](CC(C)C)C(=O)N[C@@H](CC(=O)O)C(=O)N(CCS)CC(N)=O [Peptide 14, SLDNhC] (Ac-SLD[N(2-mercaptoethyl)Gly]-NH2)",,,Kd [1]: 45.9 ± 10 nM
"CC(=O)N[C@@H](CO)C(=O)N[C@@H](CCCCN)C(=O)N(CC(=O)N[C@@H](CO)C(N)=O)Cc1c[nH]cn1 [Peptide 17, SKNHS]",,,Kd [1]: 3070 ± 790 nM
(N-Me)SKHS (peptide),4190 nM,336 nM,
(N-Me)SLDC (peptide),7600 nM,24800 nM,
NhSKHS (peptide),2090 nM,7400 nM,
NhSLDC (peptide),6550 nM,67.2 nM,
S(N-Me)KHS (peptide),8330 nM,7930 nM,
S(N-Me)LDC (peptide),580 nM,32.5 nM,
SK(N-Me)HS (peptide),1260 nM,52.8 nM,
SKH(N-Me)S (peptide),,3040 nM,
SKHNhS (peptide),430 nM,49.1 nM,
SKHS [Peptide 2],,,IC50 (A/Parma/24/09 H1N1 virus [4]): 1.5 ± 0.7 nM
SKNHS (peptide),,3070 nM,
SL(N-Me)DC (peptide),,8800 nM,
SLD(N-Me)C (peptide),3800 nM,142 nM,
SLDC [Peptide 1],,,IC50 (A/Parma/24/09 H1N1 virus [4]): 6 ± 3 nM; EC50 (A/Parma/24/09 H1N1 virus [5]): 0.0046 nM
SLDNhC (peptide),,45.9 nM,
SLNDC (peptide),,1340 nM,
SNKHS (peptide),1700 nM,39.1 nM,
SNLDC (peptide),3810 nM,701 nM,
